We go through 2 compounds from paper PMC6863848, “Selection of an optimal macrocyclic chelator improves the imaging of prostate cancer using cobalt-labeled GRPR antagonist RM26” (Scientific Reports, 2019).

The nature of data set [1]: Ex vivo biodistribution and tumor targeting. The following applies: female, BALB/c nu/nu, mouse, iv, 45 pmol per mouse, total radioactivity.
Protocol: (§1) Euthanasia was performed by intraperitoneal injection of Ketalar-Rompun solution (10 mg/mL Ketalar and 1 mg/mL Rompun; 20 µL/g body weight) and all efforts were made to minimize suffering. Groups of 4 mice per data point were used.
(§2) Blood samples were collected by heart puncture. Lung, liver, spleen, pancreas, stomach, small intestines, kidneys, muscle, bone, and the rest of gastrointestinal tract with its content were collected, weighed and measured in a gamma-counter. The organ uptake values were expressed as a percentage of injected dose per gram of tissue weight (%ID/g) with the exception of gastrointestinal tract and the remaining carcass, which were calculated as %ID per whole sample.
(§3) The biodistribution and targeting properties of ^57Co-X-PEG2-RM26 were evaluated in female BALB/c nu/nu mice (weight: 18 ± 2 g). GRPR-expressing xenografts were established by subcutaneous injection of 8 × 10^6 PC-3 cells/mouse, 2 weeks prior to the experiment. At the time of experiment, the mice were intravenously injected with ^57Co-X-PEG2-RM26 (25 kBq, 45 pmol in 100 µL PBS per mouse) and were euthanized 3 and 24 h pi.
Data set [2] has as its system PC-3 xenografted BALB/c nu/nu mice. The data set can be described thus: Ex vivo biodistribution and tumor targeting. The following applies: 24 h pi.
Protocol: as §1, §2, §3
The test system of another data set is NMRI mice. The following applies: 25 kBq, 3 and 24 h pi.
Where [3] appears, read: gastrointestinal tract with content (whole sample).
Where [4] appears, read: remaining carcass (whole sample).

Protocol for NMRI mice: as §2

With `CC(C)C[C@H](NC(=O)C[C@H](O)[C@H](CC(C)C)NC(=O)[C@H](Cc1c[nH]cn1)NC(=O)CNC(=O)[C@@H](NC(=O)[C@H](C)NC(=O)[C@H](Cc1c[nH]c2ccccc12)NC(=O)[C@H](CCC(N)=O)NC(=O)[C@@H](Cc1ccccc1)NC(=O)COCCOCCNC(=O)CN1CCN(CC(=O)O)CCN(CC(=O)O)CCN(CC(=O)O)CC1)C(C)C)C(N)=O` [DOTA], the tissue uptake at 3 h came out at 0.028 ± 0.006 %ID/g in data set [1] (blood, Blood uptake, PC-3-xenografted BALB/c nu/nu mice, iv 25 kBq/45 pmol, 3 h pi, 4 mice per data point); 0.08 ± 0.03 %ID/g in data set [1] (bone, Bone uptake, PC-3-xenografted BALB/c nu/nu mice, iv 25 kBq/45 pmol, 3 h pi, 4 mice per data point); 1.9 ± 0.3 %ID/g in data set [1] (kidneys, Kidneys uptake, PC-3-xenografted BALB/c nu/nu mice, iv 25 kBq/45 pmol, 3 h pi, 4 mice per data point); 0.078 ± 0.009 %ID/g in data set [1] (liver, Liver uptake, PC-3-xenografted BALB/c nu/nu mice, iv 25 kBq/45 pmol, 3 h pi, 4 mice per data point); 0.06 ± 0.01 %ID/g in data set [1] (lung, Lung uptake, PC-3-xenografted BALB/c nu/nu mice, iv 25 kBq/45 pmol, 3 h pi, 4 mice per data point); 0.4 ± 0.7 %ID/g in data set [1] (muscle). In addition, the tissue uptake at 3 h in data set [1] (pancreas, Pancreas uptake, PC-3-xenografted BALB/c nu/nu mice, iv 25 kBq/45 pmol, 3 h pi, 4 mice per data point) is 2.5 ± 0.8 %ID/g; in data set [1] (small intestine, Sm. Int. uptake, PC-3-xenografted BALB/c nu/nu mice, iv 25 kBq/45 pmol, 3 h pi, 4 mice per data point), 0.9 ± 0.1 %ID/g; in data set [1] (spleen, Spleen uptake, PC-3-xenografted BALB/c nu/nu mice, iv 25 kBq/45 pmol, 3 h pi, 4 mice per data point) it was 0.09 ± 0.02 %ID/g; in data set [1] (stomach, Stomach uptake, PC-3-xenografted BALB/c nu/nu mice, iv 25 kBq/45 pmol, 3 h pi, 4 mice per data point), 2.1 ± 0.6 %ID/g; in data set [1] (tumor, Tumor uptake, PC-3-xenografted BALB/c nu/nu mice, iv 25 kBq/45 pmol, 3 h pi, 4 mice per data point) it was 8.1 ± 0.6 %ID/g. The tissue uptake at 24 h in data set [1] (blood, Blood uptake, PC-3-xenografted BALB/c nu/nu mice, iv 25 kBq/45 pmol, 24 h pi, 4 mice per data point) was determined as 0.007 ± 0.002 %ID/g; in data set [1] (bone, Bone uptake, PC-3-xenografted BALB/c nu/nu mice, iv 25 kBq/45 pmol, 24 h pi, 4 mice per data point) it was 0.09 ± 0.06 %ID/g; in data set [1] (kidneys), 0.8 ± 0.2 %ID/g; in data set [1] (liver, Liver uptake, PC-3-xenografted BALB/c nu/nu mice, iv 25 kBq/45 pmol, 24 h pi, 4 mice per data point), 0.034 ± 0.003 %ID/g; in data set [1] (lung, Lung uptake, PC-3-xenografted BALB/c nu/nu mice, iv 25 kBq/45 pmol, 24 h pi, 4 mice per data point), 0.023 ± 0.004 %ID/g; in data set [1] (muscle, Muscle uptake, PC-3-xenografted BALB/c nu/nu mice, iv 25 kBq/45 pmol, 24 h pi, 4 mice per data point), 0.02 ± 0.01 %ID/g. The tissue uptake at 24 h in data set [1] (pancreas, Pancreas uptake, PC-3-xenografted BALB/c nu/nu mice, iv 25 kBq/45 pmol, 24 h pi, 4 mice per data point) was determined as 0.05 ± 0.01 %ID/g; in data set [1] (small intestine, Sm. Int. uptake, PC-3-xenografted BALB/c nu/nu mice, iv 25 kBq/45 pmol, 24 h pi, 4 mice per data point), 0.06 ± 0.02 %ID/g; in data set [1] (spleen, Spleen uptake, PC-3-xenografted BALB/c nu/nu mice, iv 25 kBq/45 pmol, 24 h pi, 4 mice per data point), 0.035 ± 0.006 %ID/g; in data set [1] (stomach, Stomach uptake, PC-3-xenografted BALB/c nu/nu mice, iv 25 kBq/45 pmol, 24 h pi, 4 mice per data point), 0.06 ± 0.02 %ID/g; in data set [1] (tumor, Tumor uptake, PC-3-xenografted BALB/c nu/nu mice, iv 25 kBq/45 pmol, 24 h pi, 4 mice per data point), 4.4 ± 1.3 %ID/g. Further, the tissue uptake dose at 3 h was 4.8 ± 0.1 %ID in data set [1] (setting [3]), 5 %ID in data set [1] (gastrointestinal tract with contents) and 0.9 ± 0.4 %ID in data set [1] (setting [4]). The values for the tissue uptake dose at 24 h in data set [1] (setting [3]) and in data set [1] (setting [4]) were 0.21 ± 0.09 %ID and 0.2 ± 0.1 %ID, respectively. In addition, the “Tumor radioactivity, higher than other conjugates” value in data set [2] is “twofold higher”.

As to `[57Co+2].[Cl-].[Cl-]` [free cobalt, cobalt-57 chloride], the Biodistribution pattern entry in the data set on NMRI mice is recorded as “Uniform activity distribution”.
